A short description of this data set: yeast display, Sf9 membrane polyspecificity reagent, FACS + sequencing; frameworks hold sequencing errors. Put shortly:
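Galactose induction of a Saccharomyces cerevisiae BJ5465 synthetic nanobody display library ran 36–48 hours. The cells were then stained for 1 hour at 4 °C with 10% biotinylated, detergent-solubilized Sf9 membrane reagent, pulled down on streptavidin microbeads and FACS-sorted into low and high (top ~1%) gates on expression and reagent-binding fluorescence. Labels for polyreactivity follow the gate of origin.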
Turning to “QVQLVESGGGLVQAGGSLRLSCAASGRIFRTNAQGWYRQAPGKERELVAAITRGGTTNYADSVKGRFTISRDNAKNTVYLQMNSLKPEDTAVYYCATRLSGWRYYLARYDYWGQGTQVTVSS”, the “polyreactivity (PSR sort gate)” value is listed as “low polyreactivity”.

As to “QVQLVESGGGLVQAGGSLRLSCAASGRIFRTNTMGWYRQAPGKERELVAAITRGGSTYYADSVKGRFTISRDNAKNTVYLQMNSLKPEDTAVYYCAASRYYNSVHNGGDYWGQGTQVTVSS”, the “polyreactivity (PSR sort gate)” value was “high polyreactivity”.

For “QVQLVESGGGLVQAGGSLRLSCAASGRIFRVNAMGWYRQAPGKERELVAAISGRGGSTYYADSVKGRFTISRDNANNTVYLQMNSLKPEDTAVYYCAKKSFSYGYNSYDYWGQGTQVTVSS”, the “polyreactivity (PSR sort gate)” value is listed as “high polyreactivity”.

Regarding “QVQLVESGGGLVQAGGSLRLSCAASGRIFRVYAMGWYRPAPGKERELVAAITSGGTTYADSVKGRFTISRDNAKNTVYLQMYSLKPEDTAVYYCAARHAYPYRRGDFNYWGQGTQVTVSS”, the “polyreactivity (PSR sort gate)” value was “high polyreactivity”.

Turning to “QVQLVESGGGLVQAGGSLRLSCAASGRIFRVYAMGWYRQAPGKERELVAAISSRGGRTYYADSVKGRFTISRDNAKNTVYLQMNSLKPEDTAVYYCAADGRSSSRATSRYDYWGQGTQVTVSS”, the “polyreactivity (PSR sort gate)” value is on record as “high polyreactivity”.

As for “QVQLVESGGGLVQAGGSLRLSCAASGRIFRVYAMGWYRQAPGKERELVAAITRGGSTYYADSVKGRFTISRDNAKNTVYLQMNSLKPEDTAVYYCAARTWHRYDYWGQGTQVTVSS”, the “polyreactivity (PSR sort gate)” value is “high polyreactivity”.

Take “QVQLVESGGGLVQAGGSLRLSCAASGRIFRVYAMGWYRQAPGKETELVAAISRTGGSTYYADSVKGRFTISRDNAKNTVYLQMNSLKPEDTAVYYCAALVNGNFPTVDYWGQGTQVTVSS”: the “polyreactivity (PSR sort gate)” value is given as “high polyreactivity”.

Take “QVQLVESGGGLVQAGGSLRLSCAASGRIFRVYTMGWYRQAPGKERELVAGITWDGGGTYYADSVKGRFTISRDNAKNTVYLQMNSLKPEDTAVYYCNAVVQGFYLAWLYTLDSWGQGTQVTVSS”: the “polyreactivity (PSR sort gate)” value is reported as “low polyreactivity”.

For “QVQLVESGGGLVQAGGSLRLSCAASGRIFRWNAMGWYRQAPGKEREFVAAISWNGGRTYYADSVMGRFTISRDNAKNTVYLQMNSLKPEDPAVYYCAATHSVPDLLSGDYWGQGTQVTVSS”, the “polyreactivity (PSR sort gate)” value is reported as “low polyreactivity”.

On to “QVQLVESGGGLVQAGGSLRLSCAASGRIFRWNAMGWYRQAPGKERELVAAISASGGRTYYADSVKGRFTISRDNAKNTVYLQMISLKPEDTAVYYCAAGPVYYYVPIGYDYWGQGTQVTVSS”, for which the “polyreactivity (PSR sort gate)” value was “high polyreactivity”.

As to “QVQLVESGGGLVQAGGSLRLSCAASGRIFRWSVRGWYRQAPGKERELVAAISYGSGSTYYADSVKGRFTISRDNAKNTVYLQMNSLKPEDTAVYYCAADSQAARYHAYDYWGQGTQVTVSS”, the “polyreactivity (PSR sort gate)” value was “high polyreactivity”.

For the sequence “QVQLVESGGGLVQAGGSLRLSCAASGRIFRWYAMGWYRQAPGKERELVASISRGGSTYYADSVKGRFTISRDNAKNTVYLQMNSLKPEDTAVYYCNVKYKYDRAYGEYDYWGQGTQVTVSS”, the “polyreactivity (PSR sort gate)” value is “high polyreactivity”.

Take “QVQLVESGGGLVQAGGSLRLSCAASGRIFRWYGMGWYRQAPGKERELVAAITSGGSTHYADSVKGRFTISRDNAKNTVYLQMNSLKPEDTAVYYCAADPYHLQTRFSGLAEFYYWGQGTQVTVSS”: the “polyreactivity (PSR sort gate)” value is “low polyreactivity”.

As for “QVQLVESGGGLVQAGGSLRLSCAASGRIFRWYGMGWYRQAPRKERELFAAISGRGGSTYYADSVKGRFTISRDIAKNTVYLQMNSLKPEDSGVYYCKKDPYYIYRPGSGQGYAFNYWGQGTQVTVSS”, the “polyreactivity (PSR sort gate)” value is recorded as “high polyreactivity”.

In the case of “QVQLVESGGGLVQAGGSLRLSCAASGRIFRWYTMGWYRQAPGKEREFVAAITWSDTSTSYADSVKGRFTISRDNAKKTVYLQMNSLKPEDTAVYYCNAATRSSVTFGWYIEYDYWGQGTQVTVSS”, the “polyreactivity (PSR sort gate)” value is “low polyreactivity”.

Take “QVQLVESGGGLVQAGGSLRLSCAASGRIFRWYTMGWYRQAPGKEREFVDAITWSDTSTSYADSVKGRFTISRDNAKNTVYLQMNSLKPEDTAVYYCNAATRSSVTFGWYIEYDYWGQGTQVTVSS”: the “polyreactivity (PSR sort gate)” value is “low polyreactivity”.

In the case of “QVQLVESGGGLVQAGGSLRLSCAASGRIFRWYVMGWYRQAPGKERELVASISSGGITYYADSVKGRFTISRDNAKNTVYLQMNSLKPEDTAVYYCNARRQPYRTSGSEMGYWGQGTQVTVSS”, the “polyreactivity (PSR sort gate)” value is reported as “high polyreactivity”.

For the sequence “QVQLVESGGGLVQAGGSLRLSCAASGRIFRYNAMGWYRQAPGKERELVAAITGCGGSTYYADSVKGRFTISRDNAKNTVYLQMNSLKPEDTAVYYCNTYTYYSRMDYWGQGTQVTVSS”, the “polyreactivity (PSR sort gate)” value was “high polyreactivity”.

Consider “QVQLVESGGGLVQAGGSLRLSCAASGRIFRYNAMGWYRQAPGKERELVAAITQSGGNTYYADSVKGRFTISRDNAKNTVYLQMNSLKPEDTAVYYCAAATRQFAGQRYGYWGQGTQVTVSS”, for which the “polyreactivity (PSR sort gate)” value is recorded as “high polyreactivity”.

Take “QVQLVESGGGLVQAGGSLRLSCAASGRIFRYNAMGWYRQAPGKERELVADINSGGITNYADSVKGRFTISRDNAKNTVYFQKNSLKPEDTAVYYCNTATNLSCGYDSWGQGTQVTVSS”: the “polyreactivity (PSR sort gate)” value is reported as “low polyreactivity”.

As for “QVQLVESGGGLVQAGGSLRLSCAASGRIFRYNAMGWYRQAPGKERELVASISSGTSTTYADSVKGRFTISRDYAKNTVYLQMNSLKPEDTAVYYCAAVPSYRGYRGGYSNLWYYYWGQGTQVTVSS”, the “polyreactivity (PSR sort gate)” value is listed as “high polyreactivity”.

Regarding “QVQLVESGGGLVQAGGSLRLSCAASGRIFRYNAMGWYRQAPGKERELVASITSGGSTKYADSVKGRFTISRDNAKNTVYLQMNSLKPEDTAVYYCAAQRATPWPKNDYWGQGTQVTVSS”, the “polyreactivity (PSR sort gate)” value is given as “high polyreactivity”.

“QVQLVESGGGLVQAGGSLRLSCAASGRIFRYNAMGWYRQAPGKERELVATISRGGGSTYYADSVKGRFTISRDNAKNTVYLQMNSLKPEDTAVYYCAAVGYYLVKFDYWGQGTQVTVSS”: the “polyreactivity (PSR sort gate)” value is listed as “high polyreactivity”.

For “QVQLVESGGGLVQAGGSLRLSCAASGRIFRYNTMGWYRQAPGKEREFVAAITQRGVNTYYADSVKGRFTISRDNAKNTVYLQLNSLKPEDTAVYYCNAKRYSYWIYRAYDYWGQGTQVTVSS”, the “polyreactivity (PSR sort gate)” value is recorded as “low polyreactivity”.

In the case of “QVQLVESGGGLVQAGGSLRLSCAASGRIFRYNTMGWYRQAPGKERELVAAITYRGGSTYYADSVKGRFTISRDNAKNTVYLQMNSLKPEDTAVYYCAASPARYWYGGKEYDYWGQGTQVTVSS”, the “polyreactivity (PSR sort gate)” value was “high polyreactivity”.

Take “QVQLVESGGGLVQAGGSLRLSCAASGRIFRYYAMGWSRQAPGKERELVAAITSDGRTYYADSVKGRVTISRDNAKNTVYLQMNSLKPEDTAVYYCAADHHSYRYGGYYYWGQGTQVTVAS”: the “polyreactivity (PSR sort gate)” value is “low polyreactivity”.

Turning to “QVQLVESGGGLVQAGGSLRLSCAASGRIFRYYAMGWYIQAPGKERELVAAISGSGGSTYYADSVKGRFTISRDNAKNTVYLQMNSLKPEDTAVYYCNARYRIPSGEGDHWGQGTQVTVSS”, the “polyreactivity (PSR sort gate)” value is “low polyreactivity”.

Consider “QVQLVESGGGLVQAGGSLRLSCAASGRIFRYYAMGWYIQAPGKERELVAAITRGGSTNYADSVKGRFTISRDNAKNTVYLQMNSLKPEDTAVYYCAARRQGRSGNGSWGQGTQVTVSS”, for which the “polyreactivity (PSR sort gate)” value is recorded as “high polyreactivity”.

For the sequence “QVQLVESGGGLVQAGGSLRLSCAASGRIFRYYAMGWYRQAPGKERELVAAIRWTAGSTYYADSVKGRFTISRDNAKNTVYLQMNSLKPEDTAVYYCATDVWKYGRYEYWGQGTLVTVSS”, the “polyreactivity (PSR sort gate)” value was “low polyreactivity”.

As to “QVQLVESGGGLVQAGGSLRLSCAASGRIFRYYAMGWYRQAPGKERELVAAISTSGDTTYYADSVKGRFTISRDNAKNTVYLQMNSLKPEDTAVYYCAKPIAPARNAYPAYDYWGQGTQVTVSS”, the “polyreactivity (PSR sort gate)” value is listed as “high polyreactivity”.

For the sequence “QVQLVESGGGLVQAGGSLRLSCAASGRIFRYYAMGWYRQAPGKERELVAAISWSGGSTYYADSVKGRFTISRDNAKNTVYLQMNSLKPEDTAVYYCNAYIYRAVPYDYWGQGTQVTVSS”, the “polyreactivity (PSR sort gate)” value is listed as “high polyreactivity”.

Turning to “QVQLVESGGGLVQAGGSLRLSCAASGRIFRYYAMGWYRQAPGKERELVAAITSDGRTYYADSVKGRFTISRDNAKNTVYLQMNSLKPEDTAVYYCAADHHSYRYGGYYYWGQGTQVTVSS”, the “polyreactivity (PSR sort gate)” value is “low polyreactivity”.

Take “QVQLVESGGGLVQAGGSLRLSCAASGRIFRYYAMGWYRQAPGKERELVAAITSGGNTYYADSVKGRFTISRDNAKNTVYLQMNSLKPVDTAVYYCADGRNLYHFYYWGQGTQVTVSS”: the “polyreactivity (PSR sort gate)” value is listed as “high polyreactivity”.

“QVQLVESGGGLVQAGGSLRLSCAASGRIFRYYAMGWYRQAPGKERELVAGITGSGTTNYADSVKGRFTISRDNAKNTVYLQMNSLKPEDTAVYYCNADRYTFWYRYERGYWGQGTQVTVSS”: the “polyreactivity (PSR sort gate)” value is “high polyreactivity”.

In the case of “QVQLVESGGGLVQAGGSLRLSCAASGRIFRYYAMGWYRQAPGKERELVARISWSGGDTYYADSVKGRFTISRDNAKNTVYLQMNSLKPEDTAVYYCNAEAWYSVEYDYWGQGTQVTVSS”, the “polyreactivity (PSR sort gate)” value is “low polyreactivity”.

Turning to “QVQLVESGGGLVQAGGSLRLSCAASGRIFRYYAMGWYRQAPGKERELVASINSGGSTYYADSVKGRFTISRDNAKNTVYLQLNSLKPEDTAVYYCAKRVGHSRHADNDYWGQGTQVTVSS”, the “polyreactivity (PSR sort gate)” value is “low polyreactivity”.

Regarding “QVQLVESGGGLVQAGGSLRLSCAASGRIFRYYAMGWYRQAPGKERELVATISRSGGSTFYADSVKGRFTISRDNAKNTVYLQMKSLKPEDTAVYYCAADYYSYVVGRIYYWGQGTQVTVSS”, the “polyreactivity (PSR sort gate)” value is recorded as “high polyreactivity”.

As for “QVQLVESGGGLVQAGGSLRLSCAASGRIFRYYAMGWYRQAPGKERELVAVISSRGGSTFYADSVKGRFTISRDNAKNTVYLQMNSLKPEDTAVYYCASRSLYVGYDYWGQGTQVTVSS”, the “polyreactivity (PSR sort gate)” value is “high polyreactivity”.

“QVQLVESGGGLVQAGGSLRLSCAASGRIFRYYAMGWYRQATGKERELVATITASSGSTYYADSVKGRFTISRDNAKNTVYLQMNSLKPEDSAVYYCAAGFVYRPGSFIRFDYWGQGTQVTVSS”: the “polyreactivity (PSR sort gate)” value is recorded as “high polyreactivity”.

For the sequence “QVQLVESGGGLVQAGGSLRLSCAASGRIFRYYDMGWYRQAPGKEREFVAAITRSGAITYYADSVKGRFTISRDNAKNTVYLQMNSLKPEDTAVYYCAARYWAKFGYWGQGTQVTVSS”, the “polyreactivity (PSR sort gate)” value is “low polyreactivity”.

“QVQLVESGGGLVQAGGSLRLSCAASGRIFRYYMGWYRQAPGKERELVAVISSGGRTKYADSVKGRFTISRDNAKNTVYLQMNSLKPEDTAVYYCAARYPREAAYGFDYWGQGTQVTVSS”: the “polyreactivity (PSR sort gate)” value was “high polyreactivity”.
